Measured values from patent US20050064507.

What was measured:
[1] = molecular target: T1, PARIS1 peptide RELEQLKAEYLERRASRRRA (SEQ ID NO:148) (not fully specified)
T1 chain: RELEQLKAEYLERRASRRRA

[2] = molecular target: T2, p164-RhoGEF peptide PRLIRRGSKKRPAR (SEQ ID NO:124) (not fully specified)
T2 chain: PRLIRRGSKKRPAR

[3] = molecular target: T3, DGKZ peptide KKKKRASFKRKSSKKG (SEQ ID NO:77) (not fully specified)
T3 chain: KKKKRASFKRKSSKKG

[4] = molecular target: T4, PLEK peptide KFARKSTRRSIRLPE (SEQ ID NO:78) (not fully specified)
T4 chain: KFARKSTRRSIRLPE

[5] = molecular target: T5, CACNA1C peptide RGFLRSASLGRRASFHLE (SEQ ID NO:96) (not fully specified)
T5 chain: RGFLRSASLGRRASFHLE

[6] = molecular target: T6, NEURL peptide ALRRPSLRREADD (SEQ ID NO:105) (not fully specified)
T6 chain: ALRRPSLRREADD

[7] = molecular target: T7, pkc-zeta peptide GLPAPGEDKSIYRRGSRRWR (SEQ ID NO:167) (not fully specified)
T7 chain: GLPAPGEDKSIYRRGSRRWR

[8] = molecular target: T8, dag kinase iota peptide NRKKKRTSFKRKA (SEQ ID NO:117) (not fully specified)
T8 chain: NRKKKRTSFKRKA

[9] = molecular target: T9, MGC2941 peptide RPTPGDGEKRSRIKKSKKRK (SEQ ID NO:139) (not fully specified)
T9 chain: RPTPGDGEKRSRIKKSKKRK

[10] = molecular target: T10, FLJ20574 peptide GENVLKKSMKSRVKG (SEQ ID NO:113) (not fully specified)
T10 chain: GENVLKKSMKSRVKG

[11] = molecular target: T11, PARIS1 peptide EYLERRASRRRAV (SEQ ID NO:130) (not fully specified)
T11 chain: EYLERRASRRRAV

[12] = molecular target: T12, Urotensin-2 receptor peptide LYARLARAYRRSQRASFKRA (SEQ ID NO:159) (not fully specified)
T12 chain: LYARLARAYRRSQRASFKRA

[13] = molecular target: T13, ASIP peptide KKRSSKKEASMKKVVRP (SEQ ID NO:97) (not fully specified)
T13 chain: KKRSSKKEASMKKVVRP

[14] = molecular target: T14, PRKCM peptide VHYTSKDTLRKRHYWR (SEQ ID NO:91) (not fully specified)
T14 chain: VHYTSKDTLRKRHYWR

[15] = molecular target: T15, MLK3 peptide QQVDRERPHVRRRRGTFKRS (SEQ ID NO:128) (not fully specified)
T15 chain: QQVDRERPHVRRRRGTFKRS

[16] = molecular target: T16, PARIS1 peptide EYLERRASRRRAV (SEQ ID NO:138) (not fully specified)
T16 chain: EYLERRASRRRAV

[17] = molecular target: T17, fit1 peptide VQMTWSYPDEKNKRASVRRR (SEQ ID NO:158) (not fully specified)
T17 chain: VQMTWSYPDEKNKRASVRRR

[18] = molecular target: T18, SMARCA5 peptide MAQIERGEARIQRRISIKKA (SEQ ID NO:166) (not fully specified)
T18 chain: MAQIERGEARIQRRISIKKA

[19] = molecular target: T19, MYBPC3 peptide LLKKRDSFRTPRDSKLE (SEQ ID NO:103) (not fully specified)
T19 chain: LLKKRDSFRTPRDSKLE

[20] = molecular target: T20, beta adducin peptide PSKSPSKKKKKFRTPSFLKK (SEQ ID NO:137) (not fully specified)
T20 chain: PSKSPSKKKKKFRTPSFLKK

[21] = molecular target: T21, MARCKS peptide KKRFSFKKSFKLSGFSFKKN (SEQ ID NO:123) (not fully specified)
T21 chain: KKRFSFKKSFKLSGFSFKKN

[22] = molecular target: T22, NR4A3 peptide KEVVRTDSLKGRRGR (SEQ ID NO:109) (not fully specified)
T22 chain: KEVVRTDSLKGRRGR

[23] = molecular target: T23, NF1 peptide AGSFKRNSIKKIV (SEQ ID NO:102) (not fully specified)
T23 chain: AGSFKRNSIKKIV

[24] = molecular target: T24, HERG peptide TELEGGFSRQRKRKLSFRRR (SEQ ID NO:140) (not fully specified)
T24 chain: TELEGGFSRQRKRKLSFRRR

[25] = molecular target: T25, splicing factor, arginine/serine-rich 4 peptide RSRSRSRSKSKDKRKSRKRS (SEQ ID NO:134) (not fully specified)
T25 chain: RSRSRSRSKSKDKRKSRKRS

[26] = molecular target: T26, dag kinase zeta peptide RPQNTLKASKKKKRASFKRK (SEQ ID NO:118) (not fully specified)
T26 chain: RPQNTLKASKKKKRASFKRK

[27] = molecular target: T27, SDPR peptide EKIKRSSLKKVDSLKK (SEQ ID NO:104) (not fully specified)
T27 chain: EKIKRSSLKKVDSLKK

[28] = molecular target: T28, ARHGAP6 peptide DGQKRKKSLRKKLD (SEQ ID NO:92) (not fully specified)
T28 chain: DGQKRKKSLRKKLD

[29] = molecular target: T29, EBNA1BP2 peptide KRPGKKGSNKRPGKR (SEQ ID NO:112) (not fully specified)
T29 chain: KRPGKKGSNKRPGKR

[30] = molecular target: T30, MARCKS peptide KKRFSFKKSFKLSGFSFKKN (SEQ ID NO:119) (not fully specified)
T30 chain: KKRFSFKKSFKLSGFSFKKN

[31] = molecular target: T31, ARHGAP6 peptide SAQITIPKDGQKRKKSLRKK (SEQ ID NO:156) (not fully specified)
T31 chain: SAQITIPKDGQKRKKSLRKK

B1: PKC-epsilon (protein)
chain: MVVFNGLLKIKICEAVSLKPTAWSLRHAVGPRPQTFLLDPYIALNVDDSRIGQTATKQKTNSPAWHDEFVTDVCNGRKIELAVFHDAPIGYDDFVANCTIQFEELLQNGSRHFEDWIDLEPEGRVYVIIDLSGSSGEAPKDNEERVFRERMRPRKRQGAVRRRVHQVNGHKFMATYLRQPTYCSHCRDFIWGVIGKQGYQCQVCTCVVHKRCHELIITKCAGLKKQETPDQVGSQRFSVNMPHKFGIHNYKVPTFCDHCGSLLWGLLRQGLQCKVCKMNVHRRCETNVAPNCGVDARGIAKVLADLGVTPDKITNSGQRRKKLIAGAESPQPASGSSPSEEDRSKSAPTSPCDQEIKELENNIRKALSFDNRGEEHRAASSPDGQLMSPGENGEVRQGQAKRLGLDEFNFIKVLGKGSFGKVMLAELKGKDEVYAVKVLKKDVILQDDDVDCTMTEKRILALARKHPYLTQLYCCFQTKDRLFFVMEYVNGGDLMFQIQRSRKFDEPRSRFYAAEVTSALMFLHQHGVIYRDLKLDNILLDAEGHCKLADFGMCKEGILNGVTTTTFCGTPDYIAPEILQELEYGPSVDWWALGVLMYEMMAGQPPFEADNEDDLFESILHDDVLYPVWLSKEAVSILKAFMTKNPHKRLGCVASQNGEDAIKQHPFFKEIDWVLLEQKKIKPPFKPRIKTKRDVNNFDQDFTREEPVLTLVDEAIVKQINQEEFKGFSYFGEDLMP
in vitro phosphorylation, 1 uM peptide (% of best substrate) [1]: 33
in vitro phosphorylation, 1 uM peptide (% of best substrate) [2]: 49
in vitro phosphorylation (% of best substrate) [3]: 71
in vitro phosphorylation (% of best substrate) [4]: 84
in vitro phosphorylation (% of best substrate) [5]: 41
in vitro phosphorylation (% of best substrate) [6]: 29
in vitro phosphorylation, 1 uM peptide (% of best substrate) [7]: 6
in vitro phosphorylation, 1 uM peptide (% of best substrate) [8]: 67
in vitro phosphorylation, 1 uM peptide (% of best substrate) [9]: 24
in vitro phosphorylation (% of best substrate) [10]: 10
in vitro phosphorylation, 1 uM peptide (% of best substrate) [11]: 46
in vitro phosphorylation, 1 uM peptide (% of best substrate) [12]: 25
in vitro phosphorylation (% of best substrate) [13]: 16
in vitro phosphorylation (% of best substrate) [14]: 49
in vitro phosphorylation, 1 uM peptide (% of best substrate) [15]: 32
in vitro phosphorylation, 1 uM peptide (% of best substrate) [16]: 27
in vitro phosphorylation, 1 uM peptide (% of best substrate) [17]: 11
in vitro phosphorylation, 1 uM peptide (% of best substrate) [18]: 10
in vitro phosphorylation (% of best substrate) [19]: 21
in vitro phosphorylation, 1 uM peptide (% of best substrate) [20]: 32
in vitro phosphorylation, 1 uM peptide (% of best substrate) [21]: 67
in vitro phosphorylation (% of best substrate) [22]: 26
in vitro phosphorylation (% of best substrate) [23]: 14
in vitro phosphorylation, 1 uM peptide (% of best substrate) [24]: 27
in vitro phosphorylation, 1 uM peptide (% of best substrate) [25]: 32
in vitro phosphorylation, 1 uM peptide (% of best substrate) [26]: 89
in vitro phosphorylation (% of best substrate) [27]: 17
in vitro phosphorylation (% of best substrate) [28]: 51
in vitro phosphorylation (% of best substrate) [29]: 11
in vitro phosphorylation, 1 uM peptide (% of best substrate) [30]: 81
in vitro phosphorylation, 1 uM peptide (% of best substrate) [31]: 18

B2: PKC-theta (protein)
chain: MSPFLRIGLSNFDCGSCQSCQGEAVNPYCAVLVKEYVESENGQMYIQKKPTMYPPWDSTFDAHINKGRVMQIIVKGKNVDLISETTVELYSLAERCRKNNGKTEIWLELKPQGRMLMNARYFLEMSDTKDMNEFETEGFFALHQRRGAIKQAKVHHVKCHEFTATFFPQPTFCSVCHEFVWGLNKQGYQCRQCNAAIHKKCIDKVIAKCTGSAINSRETMFHKERFKIDMPHRFKVYNYKSPTFCEHCGTLLWGLARQGLKCDACGMNVHHRCQTKVANLCGINQKLMAEALAMIESTQQARCLRDTEQIFREGPVEIGLPCSIKNEARPPCLPTPGKREPQGISWESPLDEVDKMCHLPEPELNKERPSLQIKLKIEDFILHKMLGKGSFGKVFLAEFKKTNQFFAIKALKKDVVLMDDDVECTMVEKRVLSLAWEHPFLTHMFCTFQTKENLFFVMEYLNGGDLMYHIQSCHKFDLSRATFYAAEIILGLQFLHSKGIVYRDLKLDNILLDKDGHIKIADFGMCKENMLGDAKTNTFCGTPDYIAPEILLGQKYNHSVDWWSFGVLLYEMLIGQSPFHGQDEEELFHSIRMDNPFYPRWLEKEAKDLLVKLFVREPEKRLGVRGDIRQHPLFREINWEELERKEIDPPFRPKVKSPFDCSNFDKEFLNEKPRLSFADRALINSMDQNMFRNFSFMNPGMERLIS
in vitro phosphorylation, 1 uM peptide (% of best substrate) [1]: 34
in vitro phosphorylation, 10 uM peptide (% of best substrate) [1]: 34
in vitro phosphorylation, 1 uM peptide (% of best substrate) [2]: 53
in vitro phosphorylation, 10 uM peptide (% of best substrate) [2]: 57
in vitro phosphorylation (% of best substrate) [3]: 74
in vitro phosphorylation (% of best substrate) [4]: 47
in vitro phosphorylation (% of best substrate) [5]: 21
in vitro phosphorylation (% of best substrate) [6]: 21
in vitro phosphorylation, 1 uM peptide (% of best substrate) [7]: 12
in vitro phosphorylation, 10 uM peptide (% of best substrate) [7]: 14
in vitro phosphorylation, 1 uM peptide (% of best substrate) [8]: 84
in vitro phosphorylation, 10 uM peptide (% of best substrate) [8]: 78
in vitro phosphorylation, 1 uM peptide (% of best substrate) [9]: 31
in vitro phosphorylation, 10 uM peptide (% of best substrate) [9]: 17
in vitro phosphorylation (% of best substrate) [10]: 10
in vitro phosphorylation, 1 uM peptide (% of best substrate) [11]: 38
in vitro phosphorylation, 10 uM peptide (% of best substrate) [11]: 44
in vitro phosphorylation, 1 uM peptide (% of best substrate) [12]: 21
in vitro phosphorylation, 10 uM peptide (% of best substrate) [12]: 17
in vitro phosphorylation (% of best substrate) [13]: 31
in vitro phosphorylation (% of best substrate) [14]: 10
in vitro phosphorylation, 1 uM peptide (% of best substrate) [15]: 41
in vitro phosphorylation, 10 uM peptide (% of best substrate) [15]: 59
in vitro phosphorylation, 1 uM peptide (% of best substrate) [16]: 34
in vitro phosphorylation, 10 uM peptide (% of best substrate) [16]: 39
in vitro phosphorylation, 1 uM peptide (% of best substrate) [17]: 19
in vitro phosphorylation, 10 uM peptide (% of best substrate) [17]: 23
in vitro phosphorylation, 1 uM peptide (% of best substrate) [18]: 13
in vitro phosphorylation, 10 uM peptide (% of best substrate) [18]: 13
in vitro phosphorylation (% of best substrate) [19]: 24
in vitro phosphorylation, 1 uM peptide (% of best substrate) [20]: 40
in vitro phosphorylation, 10 uM peptide (% of best substrate) [20]: 19
in vitro phosphorylation, 1 uM peptide (% of best substrate) [21]: 47
in vitro phosphorylation, 10 uM peptide (% of best substrate) [21]: 32
in vitro phosphorylation (% of best substrate) [22]: 9
in vitro phosphorylation (% of best substrate) [23]: 28
in vitro phosphorylation, 1 uM peptide (% of best substrate) [24]: 25
in vitro phosphorylation, 10 uM peptide (% of best substrate) [24]: 35
in vitro phosphorylation, 1 uM peptide (% of best substrate) [25]: 36
in vitro phosphorylation, 10 uM peptide (% of best substrate) [25]: 16
in vitro phosphorylation, 1 uM peptide (% of best substrate) [26]: 67
in vitro phosphorylation, 10 uM peptide (% of best substrate) [26]: 52
in vitro phosphorylation (% of best substrate) [27]: 25
in vitro phosphorylation (% of best substrate) [28]: 47
in vitro phosphorylation (% of best substrate) [29]: 17
in vitro phosphorylation, 1 uM peptide (% of best substrate) [30]: 69
in vitro phosphorylation, 10 uM peptide (% of best substrate) [30]: 28
in vitro phosphorylation, 1 uM peptide (% of best substrate) [31]: 18
in vitro phosphorylation, 10 uM peptide (% of best substrate) [31]: 23
